The source of these data is patent publication US20100150860A1.

The target of assay [1] is human fibrin (Sigma, F5386) (human) (UniProt P02671). The experiment in a line: SEC-HPLC of the mixture after 1 h at 37 C; peak of the bound pair. For orientation: Size exclusion chromatography separates by hydrodynamic size, large species first.
Assay [2] has the same target. The experiment in a line: SEC-HPLC of the mixture after 1 h at 37 C; second peak (thrombin alone runs at 18.778).

Chain of human fibrin (Sigma, F5386) (human) (P02671 36-629, chain 1 of 3): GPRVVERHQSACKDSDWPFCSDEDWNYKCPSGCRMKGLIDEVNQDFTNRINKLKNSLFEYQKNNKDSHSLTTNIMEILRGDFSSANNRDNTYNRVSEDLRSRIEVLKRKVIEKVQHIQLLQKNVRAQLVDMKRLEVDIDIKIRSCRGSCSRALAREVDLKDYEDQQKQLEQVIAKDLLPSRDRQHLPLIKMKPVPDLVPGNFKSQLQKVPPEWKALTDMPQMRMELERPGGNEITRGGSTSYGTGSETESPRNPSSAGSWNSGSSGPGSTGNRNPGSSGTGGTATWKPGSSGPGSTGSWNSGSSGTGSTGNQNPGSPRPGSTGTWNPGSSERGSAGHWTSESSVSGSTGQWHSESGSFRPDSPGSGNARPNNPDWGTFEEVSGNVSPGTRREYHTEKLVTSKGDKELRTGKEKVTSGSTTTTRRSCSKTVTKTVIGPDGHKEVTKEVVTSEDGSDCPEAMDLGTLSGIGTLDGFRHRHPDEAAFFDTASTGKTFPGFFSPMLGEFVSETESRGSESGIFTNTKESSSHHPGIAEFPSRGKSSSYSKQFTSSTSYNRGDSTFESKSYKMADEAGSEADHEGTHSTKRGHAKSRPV
Chain of human fibrin (Sigma, F5386) (human) (P02675 45-491, chain 2 of 3, further chain): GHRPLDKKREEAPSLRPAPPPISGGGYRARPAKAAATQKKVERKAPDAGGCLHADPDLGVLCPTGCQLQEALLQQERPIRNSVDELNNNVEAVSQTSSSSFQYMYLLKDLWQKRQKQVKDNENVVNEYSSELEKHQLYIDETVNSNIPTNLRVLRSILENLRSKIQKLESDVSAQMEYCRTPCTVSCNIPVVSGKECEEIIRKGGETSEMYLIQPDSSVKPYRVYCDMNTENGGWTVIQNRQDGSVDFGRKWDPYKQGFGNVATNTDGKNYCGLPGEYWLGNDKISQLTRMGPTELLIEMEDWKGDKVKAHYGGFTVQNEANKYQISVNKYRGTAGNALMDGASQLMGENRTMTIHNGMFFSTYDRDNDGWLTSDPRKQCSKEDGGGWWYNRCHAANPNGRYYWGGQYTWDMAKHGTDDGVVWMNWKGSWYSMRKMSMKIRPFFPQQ
Chain of human fibrin (Sigma, F5386) (human) (P02679 other isoform, or with tags, fused parts or gaps, chain 3 of 3, further chain): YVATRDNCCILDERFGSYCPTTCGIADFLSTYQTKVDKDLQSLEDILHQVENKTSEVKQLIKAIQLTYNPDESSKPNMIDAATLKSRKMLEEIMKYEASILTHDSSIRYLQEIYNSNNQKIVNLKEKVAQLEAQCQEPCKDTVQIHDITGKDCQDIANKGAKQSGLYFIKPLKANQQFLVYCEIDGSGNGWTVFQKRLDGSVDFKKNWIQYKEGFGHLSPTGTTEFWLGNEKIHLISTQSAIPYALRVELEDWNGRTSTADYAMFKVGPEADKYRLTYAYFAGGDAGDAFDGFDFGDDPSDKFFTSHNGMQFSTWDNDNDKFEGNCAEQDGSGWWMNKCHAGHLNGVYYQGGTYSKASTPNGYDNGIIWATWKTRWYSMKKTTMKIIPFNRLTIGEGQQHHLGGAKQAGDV

Consider “human thrombin (National Institute for the Control of Pharmaceutical and Biological Products, Lot No. 20021105) (from UniProt P00734 328-622) (enzyme)”, for which, in assay [1], the retention time (min), peak 1 worked out at 12.6 min. Moreover, in assay [2], the retention time (min), peak 2 was found to be 18.6 min.
